B1: CPEB3 Ribozyme (parent)
chain: GGGGGCCACAGCAGAAGCGUUCACGUCGCGGCCCCUGUCAGAUUCUGGUGAAUCUGCGAAUUCUGCUGU

This series covers variants of B1. The series can be described thus: self-cleavage, relative activity (ratio to wild type); higher = more cleavage; co-transcriptional.
With G25U U61A, the self-cleavage was 0.175. As for G25U U61C, the self-cleavage was determined as 0.179. On to U26A U69A, for which the self-cleavage was 0.938.

Take U26C G48U: the self-cleavage stood at 1.01. In the case of U26A G31C it was 0.18; in that of U26A G31U, 0.27. Regarding G25A U67A, the self-cleavage came to 0.21. On to G25U U55C, for which the self-cleavage stood at 0.229.

Regarding C27A U46C, the self-cleavage stood at 0.621.

For the variant G25C U67C, the self-cleavage was found to be 0.115. For G25U C34A the value was 0.153; for U26G G37C, 0.162; for C27G C63A, 0.197. For C27A U67G the value was 0.635. Turning to U26G C32U, the self-cleavage came out at 0.922. With U26C A42G, the self-cleavage stood at 0.924. In the case of U26C U62G it was 0.694; in that of G25C G50C, 0.179. In the case of C27A C66U it was 0.516; in that of U26G C34A, 0.57. In the case of G25A U61A it was 0.173; in that of C27A U38G, 0.141. As for G25C U69A, the self-cleavage amounted to 0.221. Turning to G25C U69G, the self-cleavage was found to be 0.309. In the case of C27G U69G it was 0.29. For G25A U44C the value was 0.0881; for U26G A60C, 0.361.

U26G A60G: the self-cleavage stood at 0.631. In the case of G25U G58U it was 0.186; in that of U26C C35A, 0.254; in that of U26C C32U, 0.974. Take U26C C32A: the self-cleavage came to 0.753.

Take G25A G65U: the self-cleavage is 0.134. For G25A G65C the value was 0.178. In the case of C27G C54A it was 0.187. In the case of C27A U36A it was 0.207; in that of C27G G37U, 0.165; in that of C27G G37A, 0.135. In the case of U26G C57U, the self-cleavage was determined as 0.255. In the case of U26C U43A it was 0.865; in that of U26C U43C, 0.892. In the case of U26A G48U it was 0.928. As for C27A G41U, the self-cleavage was determined as 0.16.

Take U26A G28U: the self-cleavage worked out at 0.211. For C27G G56A the value was 0.178; for C27G G56U, 0.156.

As for C27A G68U, the self-cleavage turned out to be 0.811. For C27A G68C the value was 0.765.

Regarding C27G C57U, the self-cleavage was determined as 0.189.

Take U26C G30C: the self-cleavage was found to be 0.486. In the case of U26C U49A it was 0.984; in that of G25C A60U, 0.114; in that of U26A C34A, 0.436. For C27A C45U the value was 0.596. In the case of G25A U26A it was 0.186.

On to C27G U38G, for which the self-cleavage came to 0.255. For the variant C27A G30U, the self-cleavage amounted to 0.232. In the case of U26C G56A it was 0.855; in that of C27U A60U, 0.205. For G25C G48C the value was 0.147; for G25C U64C, 0.181. In the case of G25C U64G, the self-cleavage amounted to 0.155. For U26C G37C the value was 0.178; for C27G G31U, 0.2; for U26A C33A, 0.682. In the case of U26A C33U it was 0.85; in that of U26G C29A, 0.329.

For U26A U43A, the self-cleavage worked out at 0.846. In the case of C27A C32U it was 0.543. As for U26C G65U, the self-cleavage amounted to 0.604.

On to U26A A51C, for which the self-cleavage was determined as 0.871.

U26A A51G: the self-cleavage came to 0.889.

Consider C27G C29A, for which the self-cleavage was 0.186. In the case of C27G C29U it was 0.121; in that of G25U A59G, 0.174; in that of G25A G41A, 0.174. For C27G U44C the value was 0.145; for C27G U44A, 0.212; for C27G C66G, 0.119.

Consider U26A U62C, for which the self-cleavage was 0.669. Take U26A U62G: the self-cleavage worked out at 0.652.

G25C C45A: the self-cleavage is 0.204. Turning to U26G G30A, the self-cleavage stood at 0.509. For G25A G56C the value was 0.213; for G25A G56A, 0.154.

U26C C27A: the self-cleavage amounted to 0.45.

As to U26C C27U, the self-cleavage worked out at 0.182. For U26C C27G the value was 0.195. For G25C C32U, the self-cleavage was determined as 0.179. Turning to C27A C63U, the self-cleavage is 0.463. In the case of C27A C63G it was 0.219; in that of U26A A60C, 0.285; in that of G25U C32A, 0.162. For G25U C32U the value was 0.228; for U26G C45U, 0.982. With U26G G48A, the self-cleavage came out at 0.937. For U26G G48C the value was 0.959; for U26A G68U, 0.901. For U26A G68C the value was 0.964. In the case of G25A G28A it was 0.131; in that of G25A G28U, 0.132. As for G25U C29U, the self-cleavage is 0.206. Take C27G U55C: the self-cleavage came to 0.137. Take U26G G31C: the self-cleavage was determined as 0.131. For U26G G31U the value was 0.242; for U26C U53G, 0.873; for U26C U53A, 0.958.

Consider G25U U62A, for which the self-cleavage amounted to 0.158. In the case of G25U U62G it was 0.116; in that of C27A C29U, 0.21; in that of C27A C29A, 0.184. Consider U26C C33U, for which the self-cleavage is 0.997.

G25C G58U: the self-cleavage was 0.134. In the case of G25C G58A it was 0.212; in that of G25A U69G, 0.327. In the case of U26A C29U, the self-cleavage came out at 0.36. In the case of U26A C29A it was 0.46.

With G25U C39A, the self-cleavage worked out at 0.137.

Take C27A A59G: the self-cleavage amounted to 0.353.

U26A C63G: the self-cleavage stood at 0.507.

Regarding U26A C63U, the self-cleavage was 0.779. In the case of U26G U62G it was 0.617; in that of U26G U62A, 0.818; in that of G25C G28C, 0.153. As for G25U C27U, the self-cleavage turned out to be 0.164. In the case of G25U C27A it was 0.213; in that of G25A C45G, 0.142. For G25A C45U the value was 0.132; for G25U U43G, 0.148; for G25U U43C, 0.122. For G25U U43A the value was 0.0919.

For U26A C54G, the self-cleavage came out at 0.758. For U26A C54A the value was 0.655; for C27A G56A, 0.276; for G25C C35G, 0.124. As for C27A U64C, the self-cleavage was found to be 0.343. C27G U61G: the self-cleavage is 0.172. In the case of C27G U61C it was 0.169. For G25U G28U the value was 0.145; for U26G G65U, 0.53. For C27G G68A the value was 0.228. Take G25A U46G: the self-cleavage is 0.174. For G25C A51U the value was 0.152; for U26A C39U, 0.722. For U26A C39G the value was 0.798; for U26A C39A, 0.477. For U26G G47A the value was 0.893; for U26G G47U, 0.916. Consider C27A U53G, for which the self-cleavage was found to be 0.338. For G25U C66G the value was 0.187; for G25U C66A, 0.133.

Regarding G25U G30U, the self-cleavage stood at 0.162. Consider U26G C66U, for which the self-cleavage is 0.888.

In the case of U26G C66A, the self-cleavage turned out to be 0.533. Regarding C27G A51C, the self-cleavage amounted to 0.187. Turning to U26A G56A, the self-cleavage is 0.748. For C27U A42U the value was 0.167; for G25U A60U, 0.13; for G25U A60G, 0.229.

For the variant G25U A60C, the self-cleavage is 0.132.

With U26C A60G, the self-cleavage came out at 0.85. Turning to C27G C45A, the self-cleavage came out at 0.17. For C27G C45U the value was 0.229; for U26G U61C, 0.418. For U26G U61A the value was 0.621; for C27G C39A, 0.166; for C27G C39G, 0.263.

For the origin of these results see the RNAGym collection of RNA variant scans (doi:10.7554/elife.80360).
